We go through 1 molecule from patent publication US20240082398A1, “METHODS OF PREPARING AND EXPANDING TYPE I INNATE LYMPHOID CELLS AND THERAPEUTIC USES THEREOF” (City of Hope, priority 2021, published 2024).

The subject of this experiment is IFN-γ^+ ILC1s. Briefly: In vitro stimulation: IFN-γ production by ILC1s. The experiment is classed as cell-based, mouse. The settings on record: neutralizing antibody 10 μg/ml with LSCs, or IL-7 100 ng/ml; 12 h, IL-12 plus IL-15. From the text:
ILC1s from human peripheral blood were identified by a surface stain including a live/dead cell viability cell staining kit (Invitrogen) and the following monoclonal antibodies: lineage (FITC-conjugated anti-CD3, anti-CD4, anti-CD8, anti-CD14, anti-CD15, anti-CD16, anti-CD19, anti-CD20, anti-CD33, anti-CD34, anti-CD203c, anti-FceRI), CD56 (FITC, AF700 or BV421 conjugated anti-CD56), CD127 (APC-conjugated anti-CD127), CRTH2 (PE-Cy7-conjugated anti-CRTH2), and c-Kit (PE-conjugated anti-c-Kit). ILC from mice were identified by a surface stain and the following monoclonal antibodies: lineage (PE-Cy7-conjugated anti-CD3 and anti-CD19), NK1.1 (BV510-conjugated anti-NK1.1), NKp46 (BV421, FITC or AF647-conjugated anti-NKp46), CD49b (BUV395 or PE-conjugated anti-CD49b), and CD49a (BV711-conjugated anti-CD49a). Human LSCs were identified by lineage (FITC-conjugate anti-CD2, anti-CD3, anti-CD4, anti-CD8, anti-CD14, anti-CD19, anti-CD20, anti-Mac-1, anti-CD56, and anti-CD235a), CD45 (BV510-conjugated anti-CD45), CD34 (BV510-conjugate anti-CD34), and CD38 (BV605 conjugated anti-CD38). Mouse LSCs were identified by lineage (PE-Cy7 conjugated anti-CD3, anti-CD19, anti-B220, anti-Ly6G/C, anti-Mac-1, anti-CD11b, and anti-Ter119), Sca-1 (PE-CF594 or BV510-conjugate anti-Sca-1), and c-Kit (BV711-conjugated anti-c-Kit). […]

B1: IL-7: recombinant mouse IL-7 (100 ng/ml) (protein)
chain: ECHIKDKEGKAYESVLMISIDELDKMTGTDSNCPNNEPNFFRKHVCDDTKEAAFLNRAARKLKQFLKMNISEEFNVHLLTVSQGTQTLVNCTSKEEKNVKEQKKNDACFLKRLLREIKTCWNKILKGSI
As to B1, the “effect on production of IFN-γ in normal ILC1s” value is reported as “significantly increased”.
